Source: patent US9771395B2, “Enhanced influenza hemagglutinin binders” (UNIVERSITY OF WASHINGTON, priority 2014, dated 2017)
Converted amounts (≈) assume the structure as drawn.

Key:
[1] = test system: human (H1N1) and avian (H5N1) influenza viruses; experiment: microbe, parasite or virus in culture; assay type: cell-based, Influenza virus
CA09 virus [2] = experiment: Post-exposure (therapeutic) administration after CA09 challenge in BALB/c mice; assay type: in vivo; conditions: for protection from lethality: 10 MLD50 CA09
Description: All animal experiments used in this study were approved by the University of Washington Institutional Animal Care and Use Committee. […] […] In a therapeutic setting, mice received the protein binder 0 (2 hours post-infection), 1, 2, 3, or 4 days post infection. The mice were monitored daily for weight loss and survival until 14 days post-infection. Animals that lost more than 30% of their initial body weight were euthanized in accordance with our animal protocol. The SCID (NOD SCID gamma, strain NOD.Cg-Prkdcscid Il2rgtm1Wjl/SzJ) mice and the MyD88−/−(strain B6.129P2(SJL)-Myd88tm1.1Defr/J) mice were purchased from Jackson Laboratory.

CA09 virus [3] = experiment: Pre-exposure administration and CA09 challenge in SCID mice; assay type: in vivo, NOD SCID gamma (SCID) mice; conditions: 6.0 mg/kg IN 2 hrs before CA09
Description: (§1) All animal experiments used in this study were approved by the University of Washington Institutional Animal Care and Use Committee. […] Two to forty-eight hours later, the mice were anesthetized by isoflurane and challenged intranasally with 10 MLD50 (fifty percent mouse lethal dose) of either A/California/07/09 (H1N1) (CA09) or A/PR/8/34 (H1N1) (PR8). In a therapeutic setting, mice received the protein binder 0 (2 hours post-infection), 1, 2, 3, or 4 days post infection. The mice were monitored daily for weight loss and survival until 14 days post-infection. Animals that lost more than 30% of their initial body weight were euthanized in accordance with our animal protocol. The SCID (NOD SCID gamma, strain NOD.Cg-Prkdcscid Il2rgtm1Wjl/SzJ) mice and the MyD88−/−(strain B6.129P2(SJL)-Myd88tm1.1Defr/J) mice were purchased from Jackson Laboratory.

CA09 virus [4] = experiment: Pre-exposure administration and CA09 challenge in MyD88-/- mice; assay type: in vivo; conditions: 6.0 mg/kg IN 2 hrs before CA09
Description: as §1

[5] = test system: H1N1 A/California/07/2009 (CA09) virus; experiment: Pre-exposure administration and lethal influenza challenge in BALB/c mice; assay type: in vivo
Description: as §1

[6] = Bio-Plex inflammatory cytokines in lung homogenates after protein administration (no infection); assay type: in vivo, BALB/c mice; conditions: single IN dose 6.0 mg/kg
Description: The concentrations of cytokines in lung tissue were measured. […] Lungs were thawed, weighed and lysed using the Bio-Plex® Cell Lysis Kit (Bio-Rad, Hercules, Calif.). The levels of interleukin (IL)-6, IL-10. IL-12(p70), interferon (IFN)-γ, and tumor necrosis factor (TNF)-α in the lysate were measured using a Bio-Plex) multiplex bead array kit (Bio-Rad, Hercules, Calif.). The Bio-Plex® assay was performed in accordance with the manufacturer's instructions.

[7] = test system: A/California/07/2009 (CA09) influenza virus; design: species or system ferrets; conditions: in vivo
[8] = ELISA for serum binding antibodies against HB36.6 after repeat dosing; assay type: in vivo, mice; conditions: 3.0 mg/kg IN doses two weeks apart
Description: Plates were blocked with 5% nonfat milk powder in PBS for 1 h at room temperature, and then washed three times with wash buffer (PBS-T; phosphate-buffered saline containing 0.05% Tween 20). Two-fold serial dilutions of samples were added to the wells and plates were incubated for 1 hr at room temperature. Following three washes with PBS-T, plates were incubated with horseradish-peroxidase conjugated goat anti-mouse IgG (1/3,000 dilution) secondary antibodies (Thermo Scientific Pierce) for 1 h at room temperature. After five washes with PBS-T, TMB substrate (KPL) was added to the wells for 30 min at room temperature.

[9] = mouse, in vivo
CA09 virus [10] = experiment: Bio-Plex inflammatory cytokines in lung homogenates after CA09 challenge; assay type: in vivo, BALB/c mice; conditions: 6.0 mg/kg IN 24 hrs before or after CA09; day 2 p.i.; P≦0.00119
Description: The concentrations of cytokines in lung tissue were measured. On days 2 and 4 post-infection, 8 mice per group were sacrificed and whole lung tissue was collected and immediately frozen. Lungs were thawed, weighed and lysed using the Bio-Plex® Cell Lysis Kit (Bio-Rad, Hercules, Calif.). The levels of interleukin (IL)-6, IL-10. IL-12(p70), interferon (IFN)-γ, and tumor necrosis factor (TNF)-α in the lysate were measured using a Bio-Plex) multiplex bead array kit (Bio-Rad, Hercules, Calif.). The Bio-Plex® assay was performed in accordance with the manufacturer's instructions.

CA09 virus [11] = test system: CA09 virus; design: species or system BALB/c mice; conditions: mouse, in vivo
H2 HA = assay type: binding, Influenza virus
[12] = molecular target: Hemagglutinin (HA) of pandemic 2009 California H1N1 (Influenza A virus, UniProt C3W5S1)
[13] = test system: Group I Hemagglutinin (HA) subtypes; assay type: binding, Influenza virus
CA09 virus [14] = experiment: Lung immunohistochemistry for influenza nucleoprotein (NP) after CA09 challenge; assay type: in vivo, BALB/c mice
Description: During in vivo challenge experiments, lungs were removed from mice and immersed in 10% neutral buffered formalin. Following fixation, tissues were removed from formalin and placed in paraffin. Immunohistochemical staining was performed on the Leica Bond Automated Immunostainer. Sections were deparaffinized in Leica Bond Dewax Solution (Leica Cat No. AR922) and rehydrated through 100% EtOH. After antigen retrieval with EDTA buffer pH 9.0 (Lieca Bond Epitope Retrieval Solution 2, Cat No AR9640) at 100° C. for 20 minutes and blocking endogenous peroxidase activity with 3.0% H2O2 for 5 minutes and blocking with 10% Normal Donkey Serum in TBS for 20 minutes the sections were incubated with Goat anti Influenza A Virus, (Meridian Life Science Inc. Cat No. B65141G) at 1:2000 or Normal Goat IgG, isotype control. (Invitrogen Cat No. 02-6202) at (1:5000 dilution) both in Bond Primary Antibody Diluent (Leica Cat No. AR9352) for 30 minutes at room temperature. Sections were then incubated with Rabbit anti Goat IgG (Jackson ImmunoResearch Cat. No. 305-005-045) 1:1500+5% Normal Donkey Serum for 8 minutes at RT followed by incubation with Goat anti Rabbit Poly-HRP polymer secondary detection (Leica Cat No DS9800) for 8 minutes at room temperature. Sections were then incubated with Leica Bond Mixed Refine DAB substrate detection for 10 minutes at room temperature. (Leica Cat No DS9800). […]

H5 HA = assay type: binding, Influenza virus
[15] = 0.01 mg/kg IN two hours prior to lethal CA09 challenge
[16] = 0.1 mg/kg IN two hours prior to lethal CA09 challenge
[17] = 1.0 mg/kg IN two hours prior to lethal CA09 challenge

NC(=O)c1ncn([C@@H]2O[C@H](CO)[C@@H](O)[C@H]2O)n1 [Ribavirin, 1- -D-ribofuranosyl-1,2,4-triazole-3-carboxamide, reference compound]
EC50 ([1]; Influenza A virus, MDCK, read-out: EC50 range): 15 to 18 µg/mL (≈ 61.4 to 73.7 µM)

CCOC(=O)C1=C[C@@H](OC(CC)CC)[C@H](NC(C)=O)[C@@H](N)C1 [oseltamivir, reference compound]
survival (CA09 virus [2]; 5 mg/kg/day by oral gavage, twice daily for 5 days starting day +1 p.i., 3 MLD50 CA09): 0% | delay of time to death compared to controls (CA09 virus [2]; 5 mg/kg/day by oral gavage, twice daily for 5 days starting day +1 p.i., p<0.001): about 2.5 days

lysozyme [reference compound]
survival (protected mice) (CA09 virus [3]): 0% | weight loss (CA09 virus [3]): significant weight loss | survival (protected mice) (CA09 virus [4]): 0% | weight loss (CA09 virus [4]): significant weight loss | protection ([5]; 6.0 mg/kg, 48 or 2 hrs before CA09 challenge): no protection

B1: 1u84: scaffold protein (PDB ID 1u84) that HB36.6 is modeled on; non-protective control (protein)
chain: SNAMDGQQLNRLLLEWIGAWDPFGLGKDAYDVEAASVLQAVYETEDARTLAARIQSIYEFAFDEPIPFPHCLKLARRLLELKQAASCPLP
cytokine levels by 48 hrs [6]: dropped to pre-administration levels | survival (protected mice) (CA09 virus [3]): 0% | weight loss (CA09 virus [3]): significant weight loss | survival (protected mice) (CA09 virus [4]): 0% | weight loss (CA09 virus [4]): significant weight loss | protection (CA09 virus [2]; daily administration after CA09 challenge): no protection

B2: HB36.6: HA stem binding protein, variant of HB36.5 with nine substitutions (SEQ ID NO: 3); FLAG-tagged in the studies (protein)
chain: SNAMDGQQLNRLLLENIGAWDPFGLGKDAYTYQAAEVLKAVYETNRAFDLAMRIHWIYNFAFKRRIPFARTQKLARRLLELKQAASSPLP
modifications: FLAG tag; (1)..(5) optionally absent; (86)..(90) optionally absent
notes: FLAG-tagged in the studies
protection against influenza challenge in ferrets [7]: affords prophylactic protection | 50% effective concentration (EC50) range [1]: 0.18 to 12.0 µg/mL | serum binding antibodies against HB36.6 ([8]; after the 1st and 2nd dose): No antibodies against HB36.6 were detected | animals with low levels of antibody responses ([8]; by 3rd dose): 4 of the 10 | cytokine levels by 48 hrs [6]: dropped to pre-administration levels | cytokine levels compared with 1u84 [6]: significantly lower than levels induced by 1u84 | detection of protein in lung tissue [9]: readily detected throughout the lung tissue | inflammatory cytokine response in lung (IL-6, IL-10, IL-12p70, TNF-α, IFN-γ) (CA09 virus [10]): several cytokines were significantly lower than in the controls | reduction in mean viral titers in nasal washes vs untreated controls (CA09 virus [11]): 1-3 log-fold | survival (protected mice) (CA09 virus [3]): 100% | weight loss (CA09 virus [3]): minimal weight loss | affinity increase over HB36.5 (H2 HA): greater than 40 fold | Kd stronger than HB36.5 [12]: roughly 6 fold | Kd tighter than any known de novo binder [12]: 5 fold | Kd ([12]; read-out: Kd against pandemic 2009 California H1N1): 3.1 nM | affinity compared with HB36.5 [13]: higher affinity than HB36.5 | cross-reactivity against Group I HA subtypes [13]: broadly cross-reactive | off-rates (dissociation) [13]: did not show well-defined off-rates | viral replication in the lungs vs untreated controls (CA09 virus [14]; 6.0 mg/kg IN 1 day before or post-infection, day 2 and day 4 p.i.): significantly less viral replication | NP positive (infected) cells in lung tissue vs controls (CA09 virus [14]; 6.0 mg/kg IN as therapeutic, day 4, P≦0.0263): significantly lower number of infected cells | survival (protected mice) (CA09 virus [4]): 90% | weight loss (CA09 virus [4]): minimal weight loss | affinity increase over HB36.5 (H5 HA): > 10 fold | protection from lethality (CA09 virus [2]; 3.0 mg/kg IN daily for 4 days (days +1-4 p.i.)): 100% | protection from lethality (CA09 virus [2]; single IN dose 3.0 mg/kg 2 hours p.i.): 100% | protection from lethality (CA09 virus [2]; single IN dose 3.0 mg/kg +1 day p.i.): 60% | rate of survival (CA09 virus [2]; single IN dose 10 mg/kg on day +1 p.i., 3 MLD50 CA09): 70% | effect of a single dose on survivors (CA09 virus [2]; single IN dose 1.0-10 mg/kg on day +1 p.i., CA09, dose-responsive): increase in the number of survivors | mice recovered and survived [5, 15]: 20% | survived longer than controls [5, 15]: 2 to 3 days | weight loss [5, 15]: exhibited weight loss | survival [5, 16]: 100% | weight loss [5, 16]: little | survival [5, 17]: 100% | weight loss [5, 17]: no | protection from mortality and morbidity ([5]; lethal CA09 challenge 24 hours after the 4th dose (3.0 mg/kg IN), data not shown): 100% | protection ([5]; same dose (6.0 mg/kg) delivered intravenously (IV), data not shown): no protection | survival ([5]; single IN dose 6.0 mg/kg at 2, 24 or 48 hours before 10 MLD50 CA09): 100% | weight loss ([5]; single IN dose 6.0 mg/kg up to 48 hours before 10 MLD50 CA09): moderate to low

B3: HB36.5: stable, broadly cross-reactive HA binding protein (SEQ ID NO: 4), parent of HB36.6 (protein)
chain: SNAMDGQQLNRLLLEWIGAWDPFGLGKDAYDYEAAEVLKAVYETESAFDLAMRIHWIYNFAFKRQIPFAHAQKLARRLLELKQAASSPLP
modifications: (1)..(5) optionally absent; (86)..(90) optionally absent
cross-reactivity against Group I HA subtypes [13]: broadly cross-reactive
